Results: the supplement of paper PMC7877785
± gives the uncertainty stated by the source.

Test: self-splicing fitness, log relative to wild type (ln ratio); higher = more splicing; Tetrahymena group I intron in knt gene, E. coli kanamycin selection, DiMSum; sequences stand for … in CUCUCU…GGAGGGAAAAGUUAUCAGGCAUGCACCUGGUAGCUAGUCUUUAAACCAAUAGAUUGCAUCGGUUUAAAAGGCAAGACCGUCAAAUUGCGGGAAAGGGGUCAACAGCCGUUCAGUACCAAGUCUCAGGGGAAACUUUGAGAUGGCCUUGCAAAGGGUAUGGUAAUAAGCUGACGGACAUGGUCCUAACCACGCAGCCAAGUCCUAAGUCAACAGAUCUUCUGUUGAUAUGGAUGCAGUUCACAGACUAAAUGUCGGUCGGGGAAGAUGUAUUCUUCUCAUAAGAUAUAGUCGGACCUCUCCUUAAUGGGAGCUAGCGGAUGAAGUGAUGCAACACUGGAGCCGCUGGGAACUAAUUUGUAUGCGAAAGUAUAUUGAUUAGUUUUGGAGUACUCGUGGUCG
In short: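 The eight P1ex-region nucleotides of an intron in the knt kanamycin-resistance gene on pET-22b(+) were all randomised and the library put into E. coli BL21(DE3). Six replicate transformations were grown overnight at 37°C or 30°C on LB agar with or without 25 μg/mL kanamycin, together with 100 μg/mL carbenicillin, 50 μM IPTG and 0.2% rhamnose. Colonies were pooled and amplicon-sequenced on an Illumina HiSeq 2500. Fitness from DiMSum is the error-weighted combination of wild-type-normalised replicate fold changes, kanamycin over none.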

Sequence | self-splicing fitness (ln) (30 °C) | self-splicing fitness (ln) (37 °C)
UGAAAGCAAUAUUACGCAUA | -1.31 ± 0.098 | -0.274 ± 0.11
CACAAGCAAUAUUACGAGUU | -2.91 ± 0.11 | -1.13 ± 0.089
GCUCAGCAAUAUUACGCUUC | -1.9 ± 0.077 | -0.102 ± 0.081
GCAAAGCAAUAUUACGUGCG | -0.856 ± 0.067 | -0.144 ± 0.095
ACUGAGCAAUAUUACGACAC | -3.62 ± 0.2 | -2.07 ± 0.24
ACCAAGCAAUAUUACGCGGG | -3.38 ± 0.11 | -2.18 ± 0.1
UAUCAGCAAUAUUACGAUCG | -0.364 ± 0.095 | 0.612 ± 0.14
CUGCAGCAAUAUUACGGCGU |  | -1.04 ± 0.32
GCUAAGCAAUAUUACGAAAA | -1.27 ± 0.15 | -1.6 ± 0.17
CAUCAGCAAUAUUACGUGUA | -1.18 ± 0.083 | -0.43 ± 0.079
GUACAGCAAUAUUACGGCUU | -0.512 ± 0.08 | 0.22 ± 0.09
AGUAAGCAAUAUUACGCUGA | -1.98 ± 0.33 | -2.29 ± 0.31
GGUGAGCAAUAUUACGGGAU | -3.28 ± 0.41 | -2.62 ± 0.34
ACAAAGCAAUAUUACGCUCG | -0.887 ± 0.08 | 0.156 ± 0.12
UCGCAGCAAUAUUACGACUU | -1.84 ± 0.2 | -0.512 ± 0.24
UGAUAGCAAUAUUACGUGUG | -1.45 ± 0.1 | -0.804 ± 0.098
CCAAAGCAAUAUUACGCCGG | -5.01 ± 0.41 | -2.38 ± 0.2
CCAGAGCAAUAUUACGCGCU | -2.97 ± 0.24 | -1.89 ± 0.34
GCCCAGCAAUAUUACGGUGU | -2.51 ± 0.067 | -1.27 ± 0.076
AAGCAGCAAUAUUACGUCCG | -2.15 ± 0.12 | -1.13 ± 0.11
UCCGAGCAAUAUUACGGGGU | -2.7 ± 0.2 | -2.45 ± 0.28
CUCCAGCAAUAUUACGGAUG | -2.46 ± 0.13 | -1.38 ± 0.14
GUAUAGCAAUAUUACGUUAG | -2.87 ± 0.21 | -1.07 ± 0.22
GAUGAGCAAUAUUACGCUUU | -3.32 ± 0.21 | -3.79 ± 0.33

Sequence | self-splicing fitness (ln) (30 °C) | self-splicing fitness (ln) (37 °C)
CUCAAGCAAUAUUACGUUGA | -3.13 ± 0.21 | -2.48 ± 0.2
UGGAAGCAAUAUUACGCGCU | -1.17 ± 0.21 | -1.52 ± 0.3
AAGUAGCAAUAUUACGUACC | -0.997 ± 0.16 | -0.0515 ± 0.15
GGUGAGCAAUAUUACGGCAU | -1.66 ± 0.25 | -1.05 ± 0.28
CUGAAGCAAUAUUACGUCUA | -0.846 ± 0.077 | -0.487 ± 0.1
GGCAAGCAAUAUUACGACUA | -0.26 ± 0.13 | 0.336 ± 0.14
GAUAAGCAAUAUUACGUUCA | -0.732 ± 0.093 | -0.316 ± 0.12
CAGAAGCAAUAUUACGGGCA | -2.53 ± 0.16 | -1.76 ± 0.18
GUUCAGCAAUAUUACGUUCC | -2.79 ± 0.29 | -1.78 ± 0.41
GCGGAGCAAUAUUACGUUAG | -2.8 ± 0.23 | -1.99 ± 0.35
CACUAGCAAUAUUACGCAUU | -3.06 ± 0.23 | -2.17 ± 0.17
UUUGAGCAAUAUUACGUACG | -1.49 ± 0.32 | -0.599 ± 0.35
CCUUAGCAAUAUUACGUUAG | -4.07 ± 0.21 | -2.67 ± 0.26
CGUAAGCAAUAUUACGCCAG | -2.15 ± 0.15 | -0.931 ± 0.18
UCAGAGCAAUAUUACGAAGC | -2.55 ± 0.44 | 
ACACAGCAAUAUUACGUUUG | -2.67 ± 0.067 | -1.59 ± 0.081
GUGCAGCAAUAUUACGCAGC | -3.21 ± 0.34 | -1.3 ± 0.34
ACUAAGCAAUAUUACGCGGU | -2.65 ± 0.14 | -2.59 ± 0.21
CUAAAGCAAUAUUACGUCCG | 0.264 ± 0.12 | 0.68 ± 0.16
AAGAAGCAAUAUUACGCACU | -0.114 ± 0.063 | -0.103 ± 0.081
GGCGAGCAAUAUUACGACCA | -2.38 ± 0.39 | -1.05 ± 0.42
ACGGAGCAAUAUUACGAGCU | -3.64 ± 0.46 | -2.24 ± 0.32
GGAGAGCAAUAUUACGAACU | -1.36 ± 0.31 | -1.92 ± 0.37
GAACAGCAAUAUUACGCAGA | -2.1 ± 0.14 | -1.66 ± 0.12
